Results: paper PMC10447426 (2023)

Experiments:
[1] = molecular target: T1, Fc fusion protein of mouse TNFR2 (mouse, UniProt P25119 23-258); experiment: SPR; BIAcore X-100; Fc fusion proteins of mouse TNFR2 and mouse TNFR1 immobilised on CM5 chip by amine coupling; HBS-EP plus running buffer; single-cycle kinetics, five concentrations up to 100 nM, 2 min injection at 30 μl/min, 2 min dissociation; R2agoTNF fitted with a monovalent and scR2agoTNF-Fc with a bivalent model (avidity); n = 1
T1 chain: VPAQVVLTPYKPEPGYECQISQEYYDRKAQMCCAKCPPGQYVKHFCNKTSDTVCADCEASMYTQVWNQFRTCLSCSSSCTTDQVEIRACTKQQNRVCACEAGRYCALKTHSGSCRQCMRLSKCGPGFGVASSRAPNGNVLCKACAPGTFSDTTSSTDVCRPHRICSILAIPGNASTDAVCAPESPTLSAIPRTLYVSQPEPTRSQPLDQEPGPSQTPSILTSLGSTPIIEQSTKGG

[2] = molecular target: T1, Fc fusion protein of mouse TNFR2; experiment: SPR

- Kd [1]: 1.75 nM
- koff [2]: 0.00277 s⁻¹
B1: R2agoTNF (ligand)
chain: VRSSSRTPSDMPVAHVVANPQAEGQLQWTNHGGNALLANGVELRDNQLVVPSEGLYLIYSQVLFSGQGCPSTHVLLTHTISRIAVSYQTPVNLLSAIRSPCQRETPEGAEANPWYEPIYLGGVFQLEPGDRLSAEINRPDYLNFPDSGEVYFGIIAL
